Patent US10428140B2, “Anti-EphA4 antibody” (EISAI R&D MANAGEMENT CO., LTD., priority 2015, dated 2019)

T1: human EphA6 (Homo sapiens, UniProt Q9UF33)
T1 construct: a protein of the extracellular region of each human Eph receptor fused with the SEAP protein and the His tag; made in house; host or cells: Expi293F cells (culture supernatant)
T1 sequence (Q9UF33 23-550 limits assumed): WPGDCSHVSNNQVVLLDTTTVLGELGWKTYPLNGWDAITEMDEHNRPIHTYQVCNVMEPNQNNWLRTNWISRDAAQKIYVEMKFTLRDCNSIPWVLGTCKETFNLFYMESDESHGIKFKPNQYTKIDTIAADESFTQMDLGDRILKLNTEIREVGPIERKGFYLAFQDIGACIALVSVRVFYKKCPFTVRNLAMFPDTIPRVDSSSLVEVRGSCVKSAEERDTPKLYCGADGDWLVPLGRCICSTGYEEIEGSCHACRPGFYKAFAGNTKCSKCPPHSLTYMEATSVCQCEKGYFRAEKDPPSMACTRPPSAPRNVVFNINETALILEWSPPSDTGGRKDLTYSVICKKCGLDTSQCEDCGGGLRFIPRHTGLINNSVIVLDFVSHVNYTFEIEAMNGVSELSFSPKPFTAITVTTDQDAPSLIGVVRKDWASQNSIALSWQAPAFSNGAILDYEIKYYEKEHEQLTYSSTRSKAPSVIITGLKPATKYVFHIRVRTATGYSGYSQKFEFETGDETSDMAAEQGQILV

T2: human EphA10 (Homo sapiens, UniProt Q5JZY3)
T2 construct: a protein of the extracellular region of each human Eph receptor fused with the SEAP protein and the His tag; made in house; host or cells: Expi293F cells (culture supernatant)
T2 sequence (Q5JZY3 34-565 limits assumed): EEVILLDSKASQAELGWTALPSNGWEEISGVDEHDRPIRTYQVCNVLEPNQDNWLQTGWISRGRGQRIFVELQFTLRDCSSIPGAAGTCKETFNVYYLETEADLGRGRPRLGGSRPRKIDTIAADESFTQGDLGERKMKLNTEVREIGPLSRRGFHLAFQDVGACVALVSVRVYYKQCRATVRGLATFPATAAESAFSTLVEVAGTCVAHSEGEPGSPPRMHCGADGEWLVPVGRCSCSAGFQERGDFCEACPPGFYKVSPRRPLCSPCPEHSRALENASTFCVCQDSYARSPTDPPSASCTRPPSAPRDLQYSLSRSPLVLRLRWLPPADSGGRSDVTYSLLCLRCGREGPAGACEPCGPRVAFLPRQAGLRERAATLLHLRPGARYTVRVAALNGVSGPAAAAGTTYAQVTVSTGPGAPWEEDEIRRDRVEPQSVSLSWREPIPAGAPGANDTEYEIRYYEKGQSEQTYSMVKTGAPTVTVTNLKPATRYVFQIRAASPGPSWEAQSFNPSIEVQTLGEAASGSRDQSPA

T3: human EphB6 (Homo sapiens, UniProt O15197)
T3 construct: a protein of the extracellular region of each human Eph receptor fused with the SEAP protein and the His tag; made in house; host or cells: Expi293F cells
T3 sequence (O15197 32-594 limits assumed): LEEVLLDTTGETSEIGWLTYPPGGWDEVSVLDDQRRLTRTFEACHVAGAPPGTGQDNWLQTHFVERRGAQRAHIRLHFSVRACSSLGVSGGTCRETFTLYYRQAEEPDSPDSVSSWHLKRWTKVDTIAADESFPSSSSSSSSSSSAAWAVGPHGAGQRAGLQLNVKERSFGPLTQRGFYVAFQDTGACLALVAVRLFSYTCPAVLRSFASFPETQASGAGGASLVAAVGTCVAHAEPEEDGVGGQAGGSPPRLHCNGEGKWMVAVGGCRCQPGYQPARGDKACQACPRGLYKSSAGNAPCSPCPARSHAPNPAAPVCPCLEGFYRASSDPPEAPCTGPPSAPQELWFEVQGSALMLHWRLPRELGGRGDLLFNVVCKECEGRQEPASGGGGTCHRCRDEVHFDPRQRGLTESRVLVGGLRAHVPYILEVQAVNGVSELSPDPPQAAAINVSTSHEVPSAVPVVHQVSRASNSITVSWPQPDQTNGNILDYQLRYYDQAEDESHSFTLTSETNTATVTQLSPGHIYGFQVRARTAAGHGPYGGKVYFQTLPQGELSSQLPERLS


Experiments:
Assay in all cases: Selectivity ELISA of humanized antibodies for human Eph receptor
Assay type in all cases: binding
Conditions in all cases: coated protein 1 nM
[1] = biological target: T1, human EphA6
Summary of the method: (§1)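 Steps: coat anti-His antibody; block, then 1% BlockAce overnight at 4 °C; add Eph receptor extracellular region-SEAP-His (1 nM final) 1 h; add humanized antibody 1 h; add HRP anti-IgG 1 h; develop TMB; stop with acid; read 450 nm.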

[2] = biological target: T2, human EphA10
Summary of the method: as §1

[3] = biological target: T3, human EphB6
Summary of the method: as §1

Molecule	hEphA6-SEAP-: absorbance at 450 nm, percentage with respect to hEphA4-SEAP-His as 100% [1] [%]	hEphA10-SEAP-: absorbance at 450 nm, percentage with respect to hEphA4-SEAP-His as 100% [2] [%]	hEphB6-SEAP-: absorbance at 450 nm, percentage with respect to hEphA4-SEAP-His as 100% [3] [%]
142 (antibody, V domains shown, synthetic humanized antibody heavy chain variable region sequence; synthetic humanized antibody light chain variable region sequence) VH: QVQLVQSGSELKKPGASVKVSCKASGYTFTDYSMHWVRQAPGQGLKWMGWINTETGEPTYADDFKGRFVFSLDTSVSTAYLQISSLKAEDTAVYYCARIPLYYYGSRYWYFDVWGQGTTVTVSS VL: DIQMTQSPSSLSASVGDRVTITCRASENIYRNLAWYQQKPGKAPKLLVYAATNLADGVPSRFSGSGSGTDYTLTISSLQPEDFATYYCQHFWGTPWTFGQGTKVEIK	9.7	5.4	5.6
143 (antibody, V domains shown, synthetic humanized antibody heavy chain variable region sequence; synthetic humanized antibody light chain variable region sequence) VH: QIQLVQSGSELKKPGASVKVSCKASGYTFTDYSMHWVRQAPGQGLKWMGWINTETGEPTYADDFKGRFVFSLDTSVSTAYLQISSLKAEDTAVYYCARIPLYYYGSRYWYFDVWGQGTTVTVSS VL: DIQMTQSPSSLSASVGDRVTITCRASENIYRNLAWYQQKPGKAPKLLVYAATNLADGVPSRFSGSGSGTDYTLTISSLQPEDFATYYCQHFWGTPWTFGQGTKVEIK	9.9	5.2	5.6
145 (antibody, V domains shown, synthetic humanized antibody heavy chain variable region sequence; synthetic humanized antibody light chain variable region sequence) VH: QVQLVQSGSELKKPGASVKVSCKASGYTFTDYSMHWVRQAPGQGLKWMGWINTETGEPTYADDFKGRFVFSLDTSVSTAYLQISSLKAEDTAVYYCARIPLYYYGSRYWYFDVWGQGTTVTVSS VL: DIQMTQSPSSLSASVGDRVTITCRASENIYRNLAWYQQKPGKAPKLLLYAATNLADGVPSRFSGSGSGTDYTLTISSLQSEDFATYYCQHFWGTPWTFGQGTKVEIK	8.6	6.5	6.6

Other lines, results leading:

hEphA6-SEAP-: absorbance at 450 nm, percentage with respect to hEphA4-SEAP-His as 100% [1] [%]	hEphA10-SEAP-: absorbance at 450 nm, percentage with respect to hEphA4-SEAP-His as 100% [2] [%]	hEphB6-SEAP-: absorbance at 450 nm, percentage with respect to hEphA4-SEAP-His as 100% [3] [%]	Molecule
8.7	6.0	6.2	153 (antibody, V domains shown, synthetic humanized antibody heavy chain variable region sequence; synthetic humanized antibody light chain variable region sequence) VH: QVQLVQSGSELKKPGASVKVSCKASGYTFTDYSMHWVRQAPGQGLKWMGWINTETGEPTYAQGFTGRFVFSLDTSVSTAYLQISSLKAEDTAVYYCARIPLYYYGSRYWYFDVWGQGTTVTVSS VL: DIQMTQSPSSLSASVGDRVTITCRASENIYRNLAWYQQKPGKAPKLLLYAATNLADGVPSRFSGSGSGTDYTLTISSLQSEDFATYYCQHFWGTPWTFGQGTKVEIK
8.4	5.9	6.4	154 (antibody, V domains shown, synthetic humanized antibody heavy chain variable region sequence; synthetic humanized antibody light chain variable region sequence) VH: QVQLVQSGSELKKPGASVKVSCKASGYTFTDYSMHWVRQAPGQGLEWMGWINTETGEPTYADDFKGRFVFSLDTSVSTAYLQISSLKAEDTAVYYCARIPLYYYGSRYWYFDVWGQGTTVTVSS VL: DIQMTQSPSSLSASVGDRVTITCRASENIYRNLAWYQQKPGKAPKLLLYAATNLADGVPSRFSGSGSGTDYTLTISSLQSEDFATYYCQHFWGTPWTFGQGTKVEIK
8.3	5.8	5.9	152 (antibody, V domains shown, synthetic humanized antibody heavy chain variable region sequence; synthetic humanized antibody light chain variable region sequence) VH: QVQLVQSGSELKKPGASVKVSCKASGYTFTDYSMHWVRQAPGQGLEWMGWINTETGEPTYAQGFTGRFVFSLDTSVSTAYLQISSLKAEDTAVYYCARIPLYYYGSRYWYFDVWGQGTTVTVSS VL: DIQMTQSPSSLSASVGDRVTITCRASENIYRNLAWYQQKPGKAPKLLLYAATNLADGVPSRFSGSGSGTDYTLTISSLQSEDFATYYCQHFWGTPWTFGQGTKVEIK
9.9	6.6	7.1	151 (antibody, V domains shown, synthetic humanized antibody heavy chain variable region sequence; synthetic humanized antibody light chain variable region sequence) VH: QIQLVQSGSELKKPGASVKVSCKASGYTFTDYSMHWVRQAPGQGLKWMGWINTETGEPTYAQGFTGRFVFSLDTSVSTAYLQISSLKAEDTAVYYCARIPLYYYGSRYWYFDVWGQGTTVTVSS VL: DIQMTQSPSSLSASVGDRVTITCRASENIYRNLAWYQQKPGKAPKLLLYAATNLADGVPSRFSGSGSGTDYTLTISSLQSEDFATYYCQHFWGTPWTFGQGTKVEIK
7.2	5.4	5.6	155 (antibody, V domains shown, synthetic humanized antibody heavy chain variable region sequence; synthetic humanized antibody light chain variable region sequence) VH: QIQLVQSGSELKKPGASVKVSCKASGYTFTDYSMHWVRQAPGQGLKWMGWINTETGEPTYADDFKGRFVFSLDTSVSTAYLQISSLKAEDTAVYYCARIPLYYYGSRYWYFDVWGQGTTVTVSS VL: DIQMTQSPSSLSASVGDRVTITCRASENIYRNLAWYQQKPGKAPKLLLYAATNLADGVPSRFSGSGSGTDYTLTISSLQSEDFATYYCQHFWGTPWTFGQGTKVEIK
